Assay results taken from US20240109955A1.

target: SARS-CoV-2 spike protein, original Wuhan strain (WT) (SARS-CoV-2) (UniProt P0DTC2); assay: cell-based or functional assay

Sequence of A19-46.1 (antibody) (VH): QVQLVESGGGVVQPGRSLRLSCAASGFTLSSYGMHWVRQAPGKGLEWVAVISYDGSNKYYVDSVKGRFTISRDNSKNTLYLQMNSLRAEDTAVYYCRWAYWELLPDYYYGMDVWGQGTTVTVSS
Sequence of A19-46.1 (antibody) (VL): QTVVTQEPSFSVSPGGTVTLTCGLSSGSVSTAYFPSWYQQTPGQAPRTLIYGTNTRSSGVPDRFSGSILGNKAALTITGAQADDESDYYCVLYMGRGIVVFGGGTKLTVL
Sequence of A19-46 mAb (antibody) (VH): as the sequence (VH) above
Sequence of A19-46 mAb (antibody) (VL): as the sequence (VL) above

Substance | IC50, pseudovirus neutralization [nM] | IC80, pseudovirus neutralization [nM]
A19-46 mAb (antibody) | 0.263 | 0.778
A19-46.1 (antibody) | 0.263 | 0.778
A19-61 mAb (antibody) | 0.172 | 0.408
B1-182 mAb (antibody) | 0.0264 | 0.0692
B1-182.1 (antibody) | 0.0264 | 0.0692
